According to patent US20030133907A1:

These substances were tested against T1, IFNG receptors on HeLa cells (UniProt P15260) (assay: cell-based or functional assay).
T1 sequence (looked up): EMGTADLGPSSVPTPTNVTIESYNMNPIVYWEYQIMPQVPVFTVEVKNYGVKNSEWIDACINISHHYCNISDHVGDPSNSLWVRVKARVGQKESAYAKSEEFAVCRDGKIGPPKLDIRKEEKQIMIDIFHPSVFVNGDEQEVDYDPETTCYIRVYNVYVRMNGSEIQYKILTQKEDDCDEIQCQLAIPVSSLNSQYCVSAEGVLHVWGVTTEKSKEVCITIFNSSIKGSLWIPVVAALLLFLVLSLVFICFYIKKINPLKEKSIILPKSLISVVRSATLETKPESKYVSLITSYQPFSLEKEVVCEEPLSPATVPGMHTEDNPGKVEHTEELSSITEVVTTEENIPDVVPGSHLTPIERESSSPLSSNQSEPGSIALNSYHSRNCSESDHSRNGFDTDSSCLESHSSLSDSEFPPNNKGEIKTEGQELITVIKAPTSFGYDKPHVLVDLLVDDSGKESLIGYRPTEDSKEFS

% activity of full-length wt (AU/ml basis), Primary Assay [%] | Activity (AU/ml), Primary Assay (ISRE-luciferase in HeLa cells), after transient transfection [AU/ml] | % activity of full-length wt (specific activity), Primary Assay [%] | Specific activity (AU/mg), Primary Assay (ISRE-luciferase in HeLa cells), after purification [AU/mg] | specific activity relative to the corresponding non-PEGylated IFNG variant, Primary Assay [%] | Activity relative to non-PEGylated product subjected to “PEGylation procedure” (%), Primary Assay [%] | Substance
7 | 940000 |  |  |  |  | E38N + S40T + K94C + S99T (full-length) (from UniProt P01579 24-161) (ligand)
 |  | 30 | 6.3e+06 |  |  | N59C + S99T (full-length) (from UniProt P01579 24-161) (ligand)
45 | 6.3e+06 |  |  |  |  | Wild-type (truncated after Leu135) (from UniProt P01579 24-158) (ligand)
71 | 9.9e+06 |  |  |  |  | E38N + S40T (full-length) (from UniProt P01579 24-161) (ligand)
10 | 1.4e+06 |  |  |  |  | E38N + K61T + S99T (full-length) (from UniProt P01579 24-161) (ligand)
26 | 3.7e+06 |  |  |  |  | N16C + E38N + S40T + S99T (full-length) (from UniProt P01579 24-161) (ligand)
 |  | 11 | 2.4e+06 | 15 |  | N59C + S99T (full-length + 5 kDa mPEG) (from UniProt P01579 24-161) (ligand)
 |  |  |  |  | 41 | E38C + S99T (full-length + 10 kDa mPEG) (from UniProt P01579 24-161) (ligand)
36 | 5.1e+06 | 105 | 2.2e+07 |  |  | S99T (full-length) (from UniProt P01579 24-161) (ligand)
5 | 720000 |  |  |  |  | E38N + S40T + N83C + S99T (full-length) (from UniProt P01579 24-161) (ligand)
11 | 1.5e+06 |  |  |  |  | N10C + E38N + S40T + S99T (full-length) (from UniProt P01579 24-161) (ligand)
29 | 4e+06 |  |  |  |  | E38N + S40T + S99T (truncated after Leu135) (from UniProt P01579 24-158) (ligand)
25 | 3.5e+06 |  |  |  |  | S99T (truncated after Leu135) (from UniProt P01579 24-158) (ligand)
93 | 1.3e+07 | 67 | 1.4e+07 |  |  | E38N + S40T + S99T (full-length) (from UniProt P01579 24-161) (ligand)
 |  |  |  |  | 23 | N10C + S99T (full-length + 5 kDa mPEG) (from UniProt P01579 24-161) (ligand)

The remaining lines, values behind:

Substance | % activity of full-length wt (AU/ml basis), Primary Assay [%] | Activity (AU/ml), Primary Assay (ISRE-luciferase in HeLa cells), after transient transfection [AU/ml] | % activity of full-length wt (specific activity), Primary Assay [%] | Specific activity (AU/mg), Primary Assay (ISRE-luciferase in HeLa cells), after purification [AU/mg] | specific activity relative to the corresponding non-PEGylated IFNG variant, Primary Assay [%] | Activity relative to non-PEGylated product subjected to “PEGylation procedure” (%), Primary Assay [%]
N16C + S99T (full-length) (from UniProt P01579 24-161) (ligand) | 79 | 1.1e+07 | 11 | 2.3e+06 |  | 
N16C + S99T (full-length + 10 kDa mPEG) (from UniProt P01579 24-161) (ligand) |  |  | 6 | 1.3e+06 | 15 | 
S99T + N104C (full-length) (from UniProt P01579 24-161) (ligand) | 36 | 5e+06 | 17 | 3.5e+06 |  | 
E38N + K61T (full-length) (from UniProt P01579 24-161) (ligand) | 86 | 1.2e+07 |  |  |  | 
E38N + S40T + N59C + S99T (full-length) (from UniProt P01579 24-161) (ligand) | 79 | 1.1e+07 |  |  |  | 
E38C + S99T (full-length) (from UniProt P01579 24-161) (ligand) | 71 | 1e+07 | 16 | 3.4e+06 |  | 
N10C + S99T (full-length) (from UniProt P01579 24-161) (ligand) | 18 | 2.5e+06 | 18 | 3.8e+06 |  | 
N16C + S99T (full-length + 5 kDa mPEG) (from UniProt P01579 24-161) (ligand) |  |  |  |  |  | 59
Wild-type (full-length) rhuIFNG (from UniProt P01579 24-161) (ligand) |  | 1.4e+07 |  | 2.1e+07 |  | 
S99T + N104C (full-length + 5 kDa mPEG) (from UniProt P01579 24-161) (ligand) |  |  |  |  |  | 42
E38N (full-length) (from UniProt P01579 24-161) (ligand) | 100 | 1.4e+07 |  |  |  | 
E38N + S40T + S99T + N104C (full-length) (from UniProt P01579 24-161) (ligand) | 16 | 2.3e+06 |  |  |  | 
